Assay results as given in article PMC9482650, “Quantitative fragmentomics allow affinity mapping of interactomes” (Nature Communications, 2022).

B1: CRTAP (protein, UniProt O75718 27-401, looked up)
Cartilage-associated protein: QYERYSFRSFPRDELMPLESAYRHALDKYSGEHWAESVGYLEISLRLHRLLRDSEAFCHRNCSAAPQPEPAAGLASYPELRLFGGLLRRAHCLKRCKQGLPAFRQSQPSREVLADFQRREPYKFLQFAYFKANNLPKAIAAAHTFLLKHPDDEMMKRNMAYYKSLPGAEDYIKDLETKSYESLFIRAVRAYNGENWRTSITDMELALPDFFKAFYECLAACEGSREIKDFKDFYLSIADHYVEVLECKIQCEENLTPVIGGYPVEKFVATMYHYLQFAYYKLNDLKNAAPCAVSYLLFDQNDKVMQQNLVYYQYHRDTWGLSDEHFQPRPEAVQFFNVTTLQKELYDFAKENIMDDDEGEVVEYVDDLLELEETS
B2: FERMT2 (protein, UniProt Q96AC1 1-680, looked up)
Fermitin family homolog 2: MALDGIRMPDGCYADGTWELSVHVTDLNRDVTLRVTGEVHIGGVMLKLVEKLDVKKDWSDHALWWEKKRTWLLKTHWTLDKYGIQADAKLQFTPQHKLLRLQLPNMKYVKVKVNFSDRVFKAVSDICKTFNIRHPEELSLLKKPRDPTKKKKKKLDDQSEDEALELEGPLITPGSGSIYSSPGLYSKTMTPTYDAHDGSPLSPTSAWFGDSALSEGNPGILAVSQPITSPEILAKMFKPQALLDKAKINQGWLDSSRSLMEQDVKENEALLLRFKYYSFFDLNPKYDAIRINQLYEQAKWAILLEEIECTEEEMMMFAALQYHINKLSIMTSENHLNNSDKEVDEVDAALSDLEITLEGGKTSTILGDITSIPELADYIKVFKPKKLTLKGYKQYWCTFKDTSISCYKSKEESSGTPAHQMNLRGCEVTPDVNISGQKFNIKLLIPVAEGMNEIWLRCDNEKQYAHWMAACRLASKGKTMADSSYNLEVQNILSFLKMQHLNPDPQLIPEQITTDITPECLVSPRYLKKYKNKQITARILEAHQNVAQMSLIEAKMRFIQAWQSLPEFGITHFIARFQGGKKEELIGIAYNRLIRMDASTGDAIKTWRFSNMKQWNVNWEIKMVTVEFADEVRLSFICTEVDCKVVHEFIGGYIFLSTRAKDQNESLDEEMFYKLTSGWV
B3: ATP5IF1 (protein, UniProt Q9UII2 26-106, looked up)
ATPase inhibitor, …: GSDQSENVDRGAGSIREAGGAFGKREQAEEERYFRAQSREQLAALKKHHEEEIVHHKKEIERLQKEIERHKQKIKMLKHDD

Tested on: HEK293T cells
Experiment: Label-free MS proteome of stable cell lines expressing HPV16 E6 or E6ΔPBM
Assay type: cell-based, human
Conditions: protein level, E6 cell line vs control
Procedure, shortened: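 Confluent HEK293T lysates in HEPES-KOH pH 7.5, 1% Triton X-100 buffer, TCA-precipitated, reduced, alkylated, Lys-C then trypsin digested. nanoLC (90 min gradient) on LTQ-Orbitrap Elite, TOP20 CID data-dependent acquisition; SequestHT search of human SwissProt, 1% FDR. Label-free quantification by peptide XIC intensity, technical triplicates.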

Question: Which “Difference log2 E6/Ctrl” value does the source give for B1 here?
Answer: 1.355

Question: And the “Ratio E6/Ctrl” value?
Answer: 2.558

Question: How did the “Difference log2 E6/Ctrl” value turn out when B2 was run?
Answer: 0.234

Question: What about the “Ratio E6/Ctrl” value of the same molecule?
Answer: 1.176

Question: Which “Difference log2 E6/Ctrl” value does the source give for B3 here?
Answer: 4.465

Question: And the “Ratio E6/Ctrl” value?
Answer: 22.0916

Same assay, conditions: protein level, dPBM cell line vs E6 cell line

Question: What does the source list for B1?
Answer: Difference log2 dPBM/E6: -3.496; Ratio dPBM/E6: 0.08864

Question: How did the “Difference log2 dPBM/E6” value turn out when B2 was run?
Answer: -3.123

Question: And the “Ratio dPBM/E6” value?
Answer: 0.1148

Question: For B3, which “Difference log2 dPBM/E6” value is on record?
Answer: -4.258

Question: And the “Ratio dPBM/E6” value?
Answer: 0.05227

Same assay, conditions: protein level, dPBM cell line vs control

Question: B1 was tested. Which “Difference log2 dPBM/Ctrl” value did it give?
Answer: -2.141

Question: What about the “Ratio dPBM/Ctrl” value of the same molecule?
Answer: 0.2267

Question: Which “Difference log2 dPBM/Ctrl” value does the source give for B2 here?
Answer: -2.889

Question: What about the “Ratio dPBM/Ctrl” value of the same molecule?
Answer: 0.135

Question: For B3, which “Difference log2 dPBM/Ctrl” value is on record?
Answer: 0.2076

Question: What about the “Ratio dPBM/Ctrl” value of the same molecule?
Answer: 1.155
